# Several values for one entry are separate records, joined by “and”; a condition that tells them apart may be missing. Equal entries are not always repeated. Positions of bridges follow the written chain, without caps; N, C: chain ends. No end group written: not given here.
# B1: MCH (melanin-concentrating hormone), unlabelled, P20382 147-165 (peptide, UniProt P20382 147-165, looked up)
# peptide: DFDMLRCMLGRVYRPCWQV
# modifications: not checked
# B2: [Phe^13,Tyr^19]-MCH, unlabelled (peptide)
# peptide: DFDMLRCMLGRVFRPCWQY
# modifications: disulfide 7-16 (inferred)
# notes: Only the new residues (Phe13, Tyr19) are printed; also called cold [Phe^13,Tyr^19]-MCH
# Key:
# [1] = test system: mock transfected cells (HEK293T); assay: Radioligand binding to mock transfected HEK293T cells; set-up: species or system human
# rhesus MCH-1R [2] = biological target: T1, rhesus MCH-1R (Macaca mulatta, UniProt Q8MJ89); assay: Radioligand binding to adherent HEK293T cells transfected with rhesus MCH-1R; set-up: species or system rhesus monkey
# T1 construct: expressed in transfected cells; host or cells: HEK293T
# Experimental: HEK293T cells were seeded into 24-well culture plates coated with poly-D-Lys at 1×10^5 cells/well and were cultured during over-night. The adherent cells were transfected with pEF1/V5-HisB/rhesus MCH-1R plasmid (see Example 2). Forty-eight hours after transfection, the transfected monolayer cells were rinsed with the assay buffer (Hanks' balanced salt solution containing 20 mM HEPES, 0.2% BSA and 100 μg/ml bacitracin, pH 7.4). The cells were then incubated in 250 μl well of the same buffer with [^125I]-MCH (100 pM, NEN Life Science Products, Boston, Mass.) or [^125I]-[Phe^13,Tyr^19]-MCH (100 pM, NEN Life Science Products) for 30 minutes at 37° C. After the incubation, the cells were washed three times with the ice cold assay buffer and lysed with 500 μl/well of 2 M NaOH. The lysates were transferred into test tubes and the cell- bound radioactivity was measured by a COBLA Quantum γ-counter (Packard Instrument, Meriden, CT). Nonspecific binding was defined in the presence of 1 μM cold MCH or [Phe^13,Tyr^19]-MCH for the corresponding radio ligands.
# rhesus MCH-1R [3] = biological target: T1, rhesus MCH-1R; assay: Inhibition of [125I]-MCH binding to rhesus MCH-1R expressed on HEK293T cells (filtration); set-up: species or system rhesus monkey; settings: 100 pM [125I]-MCH, 4×10^5 cells/tube, 30 min, 37° C.
# Experimental: (§1) HEK293T cells transfected with pEF1IV5-HisB/MCH1R plasmid were harvested by phosphate-buffered saline containing 2 mM EDTA 48 hours after transfection, and washed once with the assay buffer (Hanks' balanced salt solution containing 20 mM HEPES, 0.2% BSA and 100 μg/ml bacitracin, pH 7.4). The cells (4×10^5 cells/tube) were then incubated in 250 μl/tube of the same buffer with 100 pM […] for 30 minutes at 37° C. After the incubation, bound and free [^25I]-MCH were separated by filtration using a Unifilter GF/B glass filter (Packard Instrument) presoaked with 0.3% polyethylenimine. The remaining radioactivity on the filter was quantitated using a TopCount HTS (Packard instrument) with a Microscint 0 scintillation cocktail (Packard instrument). Specific binding was defined as the difference between total binding and nonspecific binding in the presence of 1 μM cold MCH. Data were analyzed using GraphPad Prism Version 3.0.
# rhesus MCH-1R [4] = biological target: T1, rhesus MCH-1R; assay: Intracellular calcium (fura-2) in HEK293T cells transiently expressing rhesus MCH-1R; assay type: cell-based, rhesus monkey; settings: read-out: EC50, increase in intracellular calcium levels
# Source text: The entire coding sequence of rhesus MCH-1R was cloned into EcoRI-NotI site of pEF1lV5-HisB plasmid vector (Invitrogen, Carlsbad, Calif.). The resultant construct was transfected into HEK293T cells using LipofectAmine PLUS (Life Technologies, Rockville, Md.) according to the manufacture's instructions. Human embryonic kidney cells constitutively expressing SV40 large T antigen (HEK-293T) were maintained in Dulbecco's modified Eagle medium (Life Technologies) supplemented with 10% fetal bovine serum, 100 units/ml penicillin-G and 100 μg/ml streptomycin at 37° C. with 5% CO2 in a humidified atmosphere.
# The intracellular calcium ion concentration ([Ca^2+]i) was measured fluorometrically using a Ca^2+-sensitive fluorescent dye, fura-2. HEK293T cells transiently transfected with pEF1N5-HisB plasmid vector harboring rhesus MCH-1R cDNA were harvested by phosphate-buffered saline containing 2 mM EDTA 48 hours after transfection, and washed once with the assay buffer (Hanks' balanced salt solution containing 20 mM HEPES and 0.1% BSA, pH 7.4). […] Data were analyzed using the software GraphPad Prism Version 3.0 (GraphPad Software, Inc., San Diego, Calif., USA).
# [5] = biological target: rhesus monkey MCH-1R (melanin-concentrating hormone type 1 receptor) (rhesus monkey) (UniProt Q8MJ89); assay: radioligand binding, 100 pM, in the presence of 1 uM cold [Phe13,Tyr19]-MCH, HEK293T cells expressing rhesus MCH-1R, replicate 1
# [6] = biological target: rhesus monkey MCH-1R (melanin-concentrating hormone type 1 receptor) (rhesus monkey) (UniProt Q8MJ89); assay: radioligand binding, 100 pM, HEK293T cells expressing rhesus MCH-1R, replicate 1
# [7] = biological target: rhesus monkey MCH-1R (melanin-concentrating hormone type 1 receptor) (rhesus monkey) (UniProt Q8MJ89); assay: radioligand binding, 100 pM, HEK293T cells expressing rhesus MCH-1R, replicate 2
# [8] = biological target: rhesus monkey MCH-1R (melanin-concentrating hormone type 1 receptor) (rhesus monkey) (UniProt Q8MJ89); assay: radioligand binding, 100 pM, in the presence of 1 uM cold [Phe13,Tyr19]-MCH, HEK293T cells expressing rhesus MCH-1R, replicate 3
# [9] = biological target: rhesus monkey MCH-1R (melanin-concentrating hormone type 1 receptor) (rhesus monkey) (UniProt Q8MJ89); assay: radioligand binding, 100 pM, in the presence of 1 uM cold [Phe13,Tyr19]-MCH, HEK293T cells expressing rhesus MCH-1R, replicate 2
# [10] = biological target: rhesus monkey MCH-1R (melanin-concentrating hormone type 1 receptor) (rhesus monkey) (UniProt Q8MJ89); assay: radioligand binding, 100 pM, HEK293T cells expressing rhesus MCH-1R, replicate 3
# [11] = biological target: T2, rhesus monkey MCH-1R (melanin-concentrating hormone type 1 receptor) (rhesus monkey), Q8MJ89; assay: cell-based or functional assay
# T2 chain: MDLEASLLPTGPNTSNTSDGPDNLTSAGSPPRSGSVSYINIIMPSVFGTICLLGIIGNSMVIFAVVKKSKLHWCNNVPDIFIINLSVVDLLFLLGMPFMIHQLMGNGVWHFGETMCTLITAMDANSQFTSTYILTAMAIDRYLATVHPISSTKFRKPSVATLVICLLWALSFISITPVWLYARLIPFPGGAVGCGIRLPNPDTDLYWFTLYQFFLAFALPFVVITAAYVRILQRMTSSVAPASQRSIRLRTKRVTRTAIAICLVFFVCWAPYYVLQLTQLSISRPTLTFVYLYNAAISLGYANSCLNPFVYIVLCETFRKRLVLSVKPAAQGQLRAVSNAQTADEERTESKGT
# [12] = biological target: T2, rhesus monkey MCH-1R …; assay: displacement of 100 pM [125I]-MCH from HEK293T cells expressing rhesus MCH-1R, filtration
# [13] = biological target: T3, rhesus monkey MCH-1R (melanin-concentrating hormone type 1 receptor) (rhesus monkey, UniProt Q8MJ89 1-353); assay: cell-based or functional assay
# [14] = biological target: T3, rhesus monkey MCH-1R …; assay: displacement of 100 pM [125I]-MCH from HEK293T cells expressing rhesus MCH-1R, filtration
# Experimental: as §1, with “(4×10⁵” for “(4×10^5”, “[²⁵I]-MCH” for “[^25I]-MCH”
# IC₅₀ values of MCH and [Phe¹³,Tyr¹⁹]-MCH in this experiment were calculated as 0.074 and 0.14 nM, respectively.
# [15] = Mock transfected HEK293T, 100 pM radioligand
# [16] = Rhesus MCH-1R transfected HEK293T, 100 pM radioligand, 30 min, 37° C.
molecule,measurement,setting,value
"[^125I]-[Phe^13,Tyr^19]-MCH",Specific binding into mock transfected cells (in words),[1]; 100 pM radioligand,Specific binding was not observed
same,"[125I]-[Phe13,Tyr19]-MCH binding, Total binding",[1]; [15],708.9 cpm and 663.3 cpm and 771.5 cpm
same,"[125I]-[Phe13,Tyr19]-MCH binding, Nonspecific binding","[1]; Mock transfected HEK293T, 100 pM radioligand in the presence of 1 μM cold [Phe13,Tyr19]-MCH",539.7 cpm and 537.7 cpm and 557.8 cpm
same,Binding to HEK293T cells expressing rhesus MCH-1R (in words),rhesus MCH-1R [2]; 100 pM radioligand,bound to the HEK293T cells expressing rhesus MCH-1R with good windows
same,"[125I]-[Phe13,Tyr19]-MCH binding, Nonspecific binding","rhesus MCH-1R [2]; Rhesus MCH-1R transfected HEK293T, 100 pM radioligand in the presence of 1 μM cold [Phe13,Tyr19]-MCH",1524.1 cpm and 2023.5 cpm and 1029.6 cpm
same,"[125I]-[Phe13,Tyr19]-MCH binding, Total binding",rhesus MCH-1R [2]; [16],5353.0 cpm and 5542.3 cpm and 6345.9 cpm
"CSCC[C@@H]1NC(=O)[C@@H](NC(=O)[C@H](CCCNC(=N)N)NC(=O)[C@H](CC(C)C)NC(=O)[C@H](CCSC)NC(=O)[C@H](CC(=O)O)NC(=O)[C@H](Cc2ccccc2)NC(=O)[C@@H](N)CC(=O)O)CSSC[C@@H](C(=O)N[C@@H](Cc2c[nH]c3ccccc23)C(=O)N[C@@H](CCC(N)=O)C(=O)N[C@H](C(=O)O)C(C)C)NC(=O)[C@@H]2CCCN2C(=O)[C@H](CCCNC(=N)N)NC(=O)[C@H](Cc2ccc(O)cc2)NC(=O)[C@H](C(C)C)NC(=O)[C@H](CCCNC(=N)N)NC(=O)CNC(=O)[C@H](CC(C)C)NC1=O [MCH, Melanin-concentrating hormone]",IC50,rhesus MCH-1R [3],0.074 nM
same,EC50,rhesus MCH-1R [4],0.3 nM
[^125I]-MCH,Specific binding into mock transfected cells (in words),[1]; 100 pM radioligand,Specific binding was not observed
same,"[125I]-MCH binding, Total binding",[1]; [15],209.9 cpm and 215.8 cpm and 239.8 cpm
same,"[125I]-MCH binding, Nonspecific binding","[1]; Mock transfected HEK293T, 100 pM radioligand in the presence of 1 μM cold MCH",172.0 cpm and 180.9 cpm and 184.1 cpm
same,Binding to HEK293T cells expressing rhesus MCH-1R (in words),rhesus MCH-1R [2]; 100 pM radioligand,bound to the HEK293T cells expressing rhesus MCH-1R with good windows
same,"[125I]-MCH binding, Total binding",rhesus MCH-1R [2]; [16],2542.8 cpm and 2893.4 cpm and 2315.5 cpm
"[^125I]-[Phe^13,Tyr^19]-MCH (from UniProt P20382 147-165) (peptide)",Nonspecific binding (cpm),[5],1520 cpm
same,Total binding (cpm),[6],5350 cpm
same,Total binding (cpm),[7],5540 cpm
same,Nonspecific binding (cpm),[8],1030 cpm
same,Nonspecific binding (cpm),[9],2020 cpm
same,Total binding (cpm),[10],6350 cpm
B1,"increase in intracellular calcium levels (fura-2) in HEK293T cells transiently expressing rhesus MCH-1R, EC50",[11],0.3 nM
same,IC50,[12],0.074 nM
B2,"increase in intracellular calcium levels (fura-2) in HEK293T cells transiently expressing rhesus MCH-1R, EC50",[13],1.1 nM
same,IC50,[14],0.14 nM

# Reference: patent publication US20040248129A1, “Rhesus monkey, dog and feeret melanin-concentrating hormone type 1 receptor” (priority 2001, published 2004)
